From article PMC4759192

Legend:
[1] = target: complex I (NADH dehydrogenase) (bovine (endogenous in bovine heart)); assay: absorption spectroscopy of the co-purified supercomplex; concentrations of b-type and c-type cytochromes (redox difference spectra) and of complex IV (reduced form) in eight supercomplex samples, room temperature, HEPES-Na pH 7.8 with sucrose
[2] = target: complex IV (cytochrome c oxidase) (bovine (endogenous in bovine heart)); assay: as above
[3] = target: complex III (cytochrome c reductase/cytochrome bc1 complex) (bovine (endogenous in bovine heart)) (UniProt P00157); assay: co-sedimentation + native gel or EMSA; crystalline complex III exchanged into amphipol, stepwise sucrose gradient 0.8-1.2 M in HEPES-Na pH 7.8, 105,000 x g, 15 h, 4 C; fractions by BN-PAGE
[4] = target: complex IV (cytochrome c oxidase) (bovine (endogenous in bovine heart)); assay: native gel or EMSA; BN-PAGE of bovine heart mitochondria solubilized with digitonin

ratio b-type cytochrome/complex IV1 (average) (b-type cytochrome per complex IV monomer) [2]	ratio c-type cytochrome/complex IV1 (average) (c-type cytochrome per complex IV monomer) [2]	stoichiometry N (complex III per complex IV) [2]	stoichiometry N [3]	stoichiometry N [4]	Substance	stoichiometry N (complex III per complex I) [1]	stoichiometry N (complex IV per complex I) [1]
3.88	2.2	2	2		complex III (cytochrome c reductase/cytochrome bc1 complex) (from UniProt P00157 1-379; P00125 85-325)	2	
				2	complex IV (cytochrome c oxidase)		1
